Measurements reported in patent publication US20240002497A1 (Merck Sharp & Dohme, published 2024).
Changes are numbered by the printed parent chain. Names and notes keep the numbering of the source. One block for each binder: values may come before it.

Tests used:
huNav1.7α + β1 (HEKa/β1) = target: T1, huNav1.7α + β1 (HEKa/β1) (human, UniProt Q15858 1-1988; Q07699 19-218); experiment: binding FACS, HEKa/β1 cells
T1 construct: also called HEKa/β1 huNav1.7α
Outline: (§1)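 Assessment used purified FLAG3-tagged ISVD incubated on cells for 30 minutes at 4° C in PBS containing 10% FBS and NaN₃, with cells washed between steps. Propidium iodide (1 μg/mL) staining removed dead cells from analysis.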

huNav1.7α (HEKa) = target: T2, huNav1.7α (HEKa) (human, UniProt Q15858 1-1988); experiment: binding FACS, HEKa cells
T2 construct: also called HEKa huNav1.7α
Protocol: Binding of the ISVDs to cell-expressed Nav1.7α was detected via murine anti-Flag (Sigma, catalog #F1804). Briefly, cells were resuspended in FACS buffer (PBS, 10% FBS, NaN₃) and transferred to a 96-well V-bottom plate at 1×10^5 cells/well. Purified FLAG3-tagged ISVD was diluted in FACS buffer and added to the cells for 30 minutes at 4° C. […] Prior to the read-out, the samples were resuspended in 1 μg/mL propidium iodide (Sigma, catalog #P4170) to exclude dead cells. Between each step, the cells were centrifuged for 5 minutes at 200 grams and washed with 100 μL/well FACS buffer.

rhNav1.7α+β1-β2-β3 [1] = target: T3, rhNav1.7α+β1-β2-β3 (rhesus monkey α subunit with human β …); experiment: binding FACS, CHO FlpIn cells
T3 construct: P2A cleaves it into α, β1, β2, β3; also called rhNav1.7-beta1-beta2-beta3

huNav1.7α+β1 [2] = target: T4, huNav1.7α+β1 (human, UniProt Q15858 1-1988; Q07699 19-218); experiment: cell-based or functional assay
huNav1.7α [3] = target: T5, huNav1.7α (human, UniProt Q15858 1-1988); experiment: cell-based or functional assay
rhNav1.7α = rhNav1.7α (rhesus monkey, UniProt Q15858 1-1988 (human entry)); experiment: cell-based or functional assay
rhNav1.7α+β1-β2-β3 [4] = target: T3, rhNav1.7α+β1-β2-β3; experiment: cell-based or functional assay
huNav1.7α [5] = target: T5, huNav1.7α; experiment: binding FACS, HEKa cells
huNav1.7α+β1 [6] = target: T4, huNav1.7α+β1; experiment: binding FACS, HEKa/β1 cells
[7] = target: T6, huNav1.7α + β1-β2-β3 (human Nav1.7α co-expressed with human Navβ1, Navβ2 and Navβ3 on cells) (human); experiment: binding FACS, CHO FlpIn cells
T6 construct: also called huNav1.7-beta1-beta2-beta3; CHO FlpIn huNav1.7α + β1-β2-β3
Outline: as §1

[8] = target: T7, rhNav1.7α + β1-β2-β3 (rhesus Nav1.7α co-expressed with Navβ1, Navβ2 and Navβ3 on cells) (rhesus monkey (α subunit); β subunits …); experiment: binding FACS, CHO FlpIn cells
T7 construct: also called rhNav1.7-beta1-beta2-beta3; CHO FlpIn rhNav1.7α + β1-β2-β3
Outline: as §1

[9] = target: huNav1.7α + β1 on HEK cells (human, UniProt Q15858 1-1988; Q07699 19-218); experiment: binding FACS, HEK cells (HEKa/b1)
[10] = target: T8, huNav1.7α on HEK cells (without β subunits) (human, UniProt Q15858 1-1988); experiment: binding FACS, HEK cells (HEKa)
T8 construct: also called HEKa huNav1.7α

B1: F010301658 (VHH)
VHH: EVQLVESGGGLVQPGGSLRLSCAASVRPFSTSAMGWFRQAPEKEREAVAAILWNGIVTYYADSVKGRFTISRDNAKNEVYLQMNKLKPEDTAVYYCALDRAYQGRSFSAKEYEYWGQGTLVTVSS
EC50 (huNav1.7α + β1 (HEKa/β1)): 20 nM
EC50 (huNav1.7α (HEKa)): 23 nM

B3: F010300659 (VHH)
VHH: EVQLVESGGGLVQPGGSLRLSCAASGPVFNINSMAWYRRAPGKQRELVAYSTPGWDWNYADSVKGRFTISRDNAKRVYLQMNSLTPEDTAVYYCRWLLQPSIYDISRTYWGQGTLVTVSS
notes: also called F0103275B05(S27P, I28V, S50Y, N53P, G55W, S56D, T57W, N93R, A94W)+FLAG3-HIS6
EC50 (huNav1.7α [5]): 9.7 nM
EC50 (rhNav1.7α+β1-β2-β3 [1]): 55 nM
EC50 (huNav1.7α+β1 [6]): 27 nM
single pulse IC50 (huNav1.7α+β1 [2]): 85 nM
2-pulse IC50 [M], P1 (huNav1.7α [3]): 1e-06 M
2-pulse IC50 [M], P2 (huNav1.7α [3]): 8e-07 M
2-pulse IC50 [M], P1 (rhNav1.7α): 1e-06 M
2-pulse IC50 [M], P2 (rhNav1.7α): 7e-07 M
single pulse IC50 (rhNav1.7α+β1-β2-β3 [4]): 180 nM

B4: F010300880 (VHH)
VHH: B3 VHH with S33R, Y50S, W55G, W57T
notes: vs F0103275B05: S27P, I28V, S33R, N53P, S56D, N93R, A94W
EC50 (huNav1.7α [5]): 15 nM
EC50 (rhNav1.7α+β1-β2-β3 [1]): 26 nM
EC50 (huNav1.7α+β1 [6]): 44 nM
single pulse IC50 (huNav1.7α+β1 [2]): 27 nM
single pulse IC50 (rhNav1.7α+β1-β2-β3 [4]): 120 nM

B5: F010301652 (VHH)
VHH: EVQLVESGGGVVQPGGSLRLSCAASGSIFNINRMAWYRRAPGKQRELVAYSTNGGDTNYADSVKGRFTISRDNAKNVYLQMNSLRPEDTALYYCRALLQPSIYDISRTYWGQGTLVTVSS
notes: also called F0103275B05(L11V, S33R, S50Y, S56D, R76N, T83R, V89L, N93R)
EC50 [7]: 61 nM
EC50 [8]: 24 nM
EC50 [9]: 38 nM
EC50 [10]: 24 nM

B6: F010300684 (VHH)
VHH: B3 VHH with I31W, Y50S, W55G, D56S, W57T, W96A, T108I
notes: vs F0103275B05: S27P, I28V, I31W, N53P, N93R, T101I
EC50 (rhNav1.7α+β1-β2-β3 [1]): 50 nM
single pulse IC50 (huNav1.7α+β1 [2]): 200 nM
2-pulse IC50 [M], P1 (huNav1.7α [3]): 2e-06 M
2-pulse IC50 [M], P2 (huNav1.7α [3]): 2e-06 M
2-pulse IC50 [M], P1 (rhNav1.7α): 7e-06 M
2-pulse IC50 [M], P2 (rhNav1.7α): 1e-06 M
single pulse IC50 (rhNav1.7α+β1-β2-β3 [4]): 210 nM

B7: F010300990 (VHH)
VHH: B3 VHH with S33R, W55G, D56S, W57T, R95N, W96A, T108I
notes: vs F0103275B05: S27P, I28V, S33R, S50Y, N53P, T101I
EC50 (huNav1.7α [5]): 4.3 nM
EC50 (rhNav1.7α+β1-β2-β3 [1]): 38 nM
EC50 (huNav1.7α+β1 [6]): 65 nM
single pulse IC50 (huNav1.7α+β1 [2]): 250 nM
single pulse IC50 (rhNav1.7α+β1-β2-β3 [4]): 100 nM

B9: F010301653 (VHH)
VHH: B5 VHH with N76R
notes: also called F0103275B05(L11V, S33R, S50Y, S56D, T83R, V89L, N93R)
EC50 [7]: 36 nM
EC50 [8]: 16 nM
EC50 [9]: 29 nM
EC50 [10]: 15 nM

B12: F010300631 (VHH)
VHH: B3 VHH with W55G, D56S, W57T, W96A
notes: vs F0103275B05: S27P, I28V, S50Y, N53P, N93R
EC50 (rhNav1.7α+β1-β2-β3 [1]): 45 nM
single pulse IC50 (huNav1.7α+β1 [2]): 73 nM
2-pulse IC50 [M], P1 (huNav1.7α [3]): 1e-06 M
2-pulse IC50 [M], P2 (huNav1.7α [3]): 8e-07 M
2-pulse IC50 [M], P1 (rhNav1.7α): 2e-06 M
2-pulse IC50 [M], P2 (rhNav1.7α): 8e-07 M
single pulse IC50 (rhNav1.7α+β1-β2-β3 [4]): 170 nM

B13: F010301654 (VHH)
VHH: B5 VHH with R39Q, N76R
notes: also called F0103275B05(L11V, S33R, R39Q, S50Y, S56D, T83R, V89L, N93R)
EC50 [7]: 32 nM
EC50 [8]: 18 nM
EC50 [9]: 25 nM
EC50 [10]: 18 nM

More lines, now with the values ahead:

EC50 (rhNav1.7α+β1-β2-β3 [1]): 170 nM
single pulse IC50 (huNav1.7α+β1 [2]): 96 nM
2-pulse IC50 [M], P1 (huNav1.7α [3]): 2e-06 M
2-pulse IC50 [M], P2 (huNav1.7α [3]): 2e-06 M
2-pulse IC50 [M], P1 (rhNav1.7α): 3e-06 M
2-pulse IC50 [M], P2 (rhNav1.7α): 1e-06 M
single pulse IC50 (rhNav1.7α+β1-β2-β3 [4]): 1200 nM
B2: F010300477 (VHH)
VHH: B3 VHH with P27S, V28I, Y50S, P53N, W55G, D56S, W57T, R95N
notes: vs F0103275B05: A94W

EC50 [7]: 46 nM
EC50 [8]: 26 nM
EC50 [9]: 28 nM
EC50 [10]: 19 nM
B8: F010301655 (VHH)
VHH: B5 VHH with R39Q
notes: also called F0103275B05(L11V, S33R, R39Q, S50Y, S56D, R76N, T83R, V89L, N93R)

EC50 (huNav1.7α [5]): 20 nM
EC50 (rhNav1.7α+β1-β2-β3 [1]): 25 nM
EC50 (huNav1.7α+β1 [6]): 70 nM
single pulse IC50 (huNav1.7α+β1 [2]): 200 nM
single pulse IC50 (rhNav1.7α+β1-β2-β3 [4]): 36 nM
B10: F010300900 (VHH)
VHH: B3 VHH with S33R, Y50S, W55G, W57T, T108I
notes: vs F0103275B05: S27P, I28V, S33R, N53P, S56D, N93R, A94W, T101I

EC50 (huNav1.7α [5]): 69 nM
EC50 (rhNav1.7α+β1-β2-β3 [1]): 20 nM
EC50 (huNav1.7α+β1 [6]): 68 nM
single pulse IC50 (huNav1.7α+β1 [2]): 320 nM
single pulse IC50 (rhNav1.7α+β1-β2-β3 [4]): 58 nM
B11: F010300948 (VHH)
VHH: B3 VHH with S33R, Y50S, W55G, D56S, W57T, T108I
notes: vs F0103275B05: S27P, I28V, S33R, N53P, N93R, A94W, T101I
